# Experimental data: article PMC7108782, “Direct interaction of metastasis-inducing S100P protein with tubulin causes enhanced cell migration without changes in cell adhesion” (Biochemical Journal, 2020)
# Several values for one entry are separate records, joined by “and”; a condition that tells them apart may be missing. Equal values may be shown once.
# Experiments:
# [1] = system: COS-7 S10 cells; experiment: Immunofluorescence of MTOC and EB3 bundles; format: cell-based, monkey; conditions: COS-7 S10, S100P induced
# Procedure: Immunofluorescent staining was carried out as previously described. COS-7 S10 and MCF-7 cells were induced for 48 h prior to plating at 25,000 cells/well onto either untreated or fibronectin-coated (2.5 µg/cm^2) glass coverslips in a 24-well plate. After a further 48 h, cells were washed once in Cytoskeleton Buffer (CB: 150 mM NaCl, 5 mM MgC1_2, 5 mM EGTA, 5 mM glucose, 10 mM 2-(N-morpholino) ethanesulfonic acid, pH 6.1) prior to fixing with 3.7% (w/v) paraformaldehyde in CB at 37°C for 20 min. Cells were permeabilised with 1% (v/v) Triton X-100 in CB for 2 min and blocked with 5% (v/v) goat serum in CB for 60 min before incubation with rabbit anti-EB3 (Abcam ab157217) and mouse anti-α-tubulin (Sigma T5168) (dilution between 1/400 and 1/500) in 1% (v/v) goat serum in CB for 60 min at room temperature. […] Quantification of the presence of EB3 clusters at the cell periphery or well-defined MTOC was performed by counting the number per cell in about 100 cells selected at random. […] For MTOC quantification, cells and MTOC were graded as shown in Figure 4C′ where organisation is defined as (1) not visible or poorly structured organisation; (2) visible but poorly formed; (3) visible and defined; and (4) well defined and extensive regions. […]
# [2] = system: tubulin polymerisation in HeLa-A19 cells; experiment: In vivo tubulin polymerisation assay, HeLa / HeLa-A19; format: cell-based, human; conditions: HeLa-A19, 4 h after second release, 1 µg/ml doxycycline
# Procedure: HeLa and S100P-inducible HeLa, COS-7 and S100P-inducible COS-7 cells were routinely cultured with or without doxycycline (1 µg/ml) and treated with 33 µM nocodazole for 24 h to synchronise the cells. Then the nocodazole was washed away (First release) and the synchronised cells were cultured in normal medium for 4 h to allow them to complete cell division. The nocodazole was then added again for 4 h to dissociate all the MTs. After this time, nocodazole was again removed by extensive washings (Second release) and tubulin was allowed to polymerise in the interphase of the cell cycle for different times. The cells were treated with buffer (10 mM Tris–HCl, 150 mM KCl, pH 7.4, 2% (v/v) Triton X-100) and the Triton-X100-insoluble tubulins (representing the newly formed MTs) were solubilised in Sample Buffer and quantified by Western blotting. To test the effect of tubulin-derived peptides, 20 µM T-DIC, T-DLV, T-IMN and tag-peptide alone (Supplementary Table S3) in 0.25% (v/v) DMSO as solvent, as well as the solvent control 0.25% (v/v) DMSO were added immediately after the second release in Sample Buffer and quantified at the different time points by Western blotting.
# [3] = system: COS-7 S10 cells; experiment: Cell adhesion assays, COS-7 S10; format: cell-based, monkey
# Procedure: For kinetics of attachment either HeLa-A3 or COS-7 S10 cells were induced with 1 µg/ml doxycycline 48 h prior to experiment and 2 × 10^5 uninduced or induced cells in 1 ml were added to 24 well tissue culture dishes and allowed to adhere at 37°C. At the given time (30 min to 2 h) cells were washed 2× with PBS and detached with 250 µl 0.05% (w/v) trypsin in versene for 5 min at 37°C, neutralised in serum-containing media (SCM), counted and the percent of seeded cells recorded. For strength of adhesion, the same cells were seeded in 24 well tissue culture dishes so as to yield 80% confluence in 24 h. In all cases identical dishes were set up for test and control. After 24 h, wells were washed 2× and detached with 250 µl, 0.0125% (w/v) trypsin in versene for 5 min at 37°C. Wells were then carefully washed 2× to remove weak binders. Trypsin in versene (250 µl of 0.05% (w/v)) was then added to both test dish and control dish for 5 min to remove all cells from the well, neutralised with SCM and counted. The proportion of cells remaining after the weak digestion step was determined from the ratio of results from test and control plates. All assays were performed in triplicate.
# [4] = system: α and β-tubulin subunits and half molecules; experiment: Gel overlay assay; format: binding, human; conditions: 3 µg/ml S100P, 1 μM proteins, 4°C overnight
# Procedure: The coding sequences for full length (human) α-tubulin and for N-terminal and C-terminal halves of α or β-tubulin were generated using PCR with specific primers shown in Supplementary Table S1 and sub-cloned into pET16(b) for expressing and purifying His-tagged full-length α-tubulin and His-tagged tubulin fragments in E. coli, as described previously. β-tubulin was purchased from Abcam.
# Equal molar proteins (1 μM) were subjected to SDS PAGE on 10% (w/v) polyacrylamide gels. One gel was stained with Coomassie Blue to check equal loading and the other electroblotted onto PVDF membrane. Three µg/ml S100P in Gel Overlay Buffer were added to the membrane and the contents incubated at 4°C overnight. After extensive washing, the presence of bound S100P was probed with mouse anti-S100P as described for Western blotting.
molecule,measurement,setting,value
S100P: recombinant or doxycycline-induced overexpressed S100P protein (protein) MTELETAMGMIIDVFSRYSGSEGSTQTLTKGELKVLMEKELPGFLQSGKDKDAVDKLLKDLDANGDAQVDFSEFIVFVAAITSACHKYFEKAGLK,reduction in percentage of cells with EB3 bundles at periphery,[1],52%
same,reduction in percentage of well-defined MTOCs per cell,[1],31%
same,reduction in tubulin polymerisation on S100P induction,[2],31% and ~30%
same,change in rate and strength of adhesion (in words),"[3]; COS-7 S10, 1 µg/ml doxycycline, P ≥ 0.18",no significant decrease in the rate of adhesion (Supplementary Figure S1) or significant decrease in strength of adhesion
same,change in strength of adhesion (in words),"[3]; COS-7 S10, S100P induced vs uninduced, n = 3","significant change in the strength of adhesion upon induction of S100P (t = 0.6, P = 0.95, n = 3)"
same,binding of S100P to tubulin subunits and half molecules,[4],interacted with both α and β-tubulin subunits and with all four half molecules
